In patent US20090155236A1, “Peptide sequence for modulation of delta protein kinase c” (NATIONAL INSTITUES OF HEALTH (NIH), U.S. DEPT OF HEALTH AND …, priority 2004, published 2009):

Tests used:
[1] = biological target: T1, delta PKC-annexin V complex (Cricetulus griseus, UniProt A0A8C2N0P5+G3I5A4); assay: Dissociation of delta PKC-annexin V complex in CHO cells; format: cell-based; conditions: CHO cells pretreated with the agent, then 10 nM PMA, FIG. 7
T1 construct: endogenous in cells; host or cells: CHO cells
T1 sequence (A0A8C2N0P5 1-676): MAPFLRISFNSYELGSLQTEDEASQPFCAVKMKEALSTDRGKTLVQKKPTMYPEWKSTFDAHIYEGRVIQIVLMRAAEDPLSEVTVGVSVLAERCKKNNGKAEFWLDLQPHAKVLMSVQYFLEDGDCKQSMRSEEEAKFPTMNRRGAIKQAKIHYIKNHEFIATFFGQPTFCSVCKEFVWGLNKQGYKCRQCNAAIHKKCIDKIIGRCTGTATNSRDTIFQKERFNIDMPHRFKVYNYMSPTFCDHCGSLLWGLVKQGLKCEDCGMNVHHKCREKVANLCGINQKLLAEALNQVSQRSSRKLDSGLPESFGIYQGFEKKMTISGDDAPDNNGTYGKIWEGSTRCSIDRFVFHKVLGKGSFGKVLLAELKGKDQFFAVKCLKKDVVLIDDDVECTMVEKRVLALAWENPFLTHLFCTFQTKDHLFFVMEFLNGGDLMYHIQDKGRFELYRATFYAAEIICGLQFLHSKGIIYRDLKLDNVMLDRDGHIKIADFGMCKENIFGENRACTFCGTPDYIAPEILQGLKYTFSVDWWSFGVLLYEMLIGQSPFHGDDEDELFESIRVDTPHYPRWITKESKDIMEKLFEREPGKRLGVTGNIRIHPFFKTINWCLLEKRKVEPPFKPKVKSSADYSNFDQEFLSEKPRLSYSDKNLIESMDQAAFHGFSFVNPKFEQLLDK
T1 sequence (G3I5A4 1-321): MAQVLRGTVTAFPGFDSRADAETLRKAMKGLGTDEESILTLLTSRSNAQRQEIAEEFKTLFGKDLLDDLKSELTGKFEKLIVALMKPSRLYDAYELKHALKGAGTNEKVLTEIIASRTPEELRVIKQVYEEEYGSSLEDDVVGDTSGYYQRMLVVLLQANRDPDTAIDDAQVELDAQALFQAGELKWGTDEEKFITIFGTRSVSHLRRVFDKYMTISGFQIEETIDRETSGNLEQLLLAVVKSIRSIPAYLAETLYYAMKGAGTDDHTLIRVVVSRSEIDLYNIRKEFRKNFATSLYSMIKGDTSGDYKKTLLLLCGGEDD
Protocol: To determine the requirements for complex disassociation and subsequent translocation, PMA-induced formation of the delta PKC-annexin V complex was conducted under energetically limiting conditions caused by ATP depletion using 2-deoxyglucose (Kondo, T. et al., J. Lab. Clin. Med., 94:617-23 (1979)), and with cytoskeletal perturbations by pretreatment with actin […] agent cytochalasin D or microtubule-destabilizing agent nocodazole.
CHO cells were pretreated with one of the following: (1) 2-deoxyglucose (20 mM) for 4 hours in a glucose-free buffer; (2) nocodazole (10 μM) for 2 hours; or (3) cytochalasin D (2 μM) for 1 hour. The cells were then treated with phorbol myristate acetate (PMA; 10 nM) for times of between 30 seconds to 5 minutes. After the lapsed time, the cells were washed with cold PBS, and homogenized on ice with trituration in homogenization buffer (20 mM Tris pH 7.4, 2 mM EDTA, 10 mM EGTA, 0.25M sucrose, 12 mM β-mercaptoethanol, and protease inhibitor cocktail (Sigma), 0.1% formaldehyde. After 30 min at 4° C., the lysates were quenched with 0.14M glycine for 20 min at 4° C., and samples spun at 14K rpm at 4° C. The supernatant was incubated with 1 μg anti-delta PKC antibody (Santa Cruz Biotechnology, Inc., Santa Cruz, Calif.) for 1 hour, then with proteinG beads (Invitrogen Corporation) for 3 hours at 4° C. The beads where then washed with wash buffer (20 mM Tris pH 7.5, 2 mM EDTA, 100 mM NaCl, 12 mM β-mercaptoethanol, 0.1% Triton), and separated on 7.5% SDS-PAGE, transferred to nitrocellulose, and probed with anti-annexin V (Santa Cruz Biotechnology, Inc., Santa Cruz, Calif.), followed by visualization by ECL Western blotting.

[2] = biological target: T2, annexin V and delta PKC interaction (Homo sapiens, UniProt Q05655); assay: Cross-linking immuno-precipitation of delta PKC probed with anti-annexin V in cardiac myocytes; format: cell-based
T2 construct: endogenous in cells; host or cells: cardiomyocytes
T2 sequence (Q05655 whole entry): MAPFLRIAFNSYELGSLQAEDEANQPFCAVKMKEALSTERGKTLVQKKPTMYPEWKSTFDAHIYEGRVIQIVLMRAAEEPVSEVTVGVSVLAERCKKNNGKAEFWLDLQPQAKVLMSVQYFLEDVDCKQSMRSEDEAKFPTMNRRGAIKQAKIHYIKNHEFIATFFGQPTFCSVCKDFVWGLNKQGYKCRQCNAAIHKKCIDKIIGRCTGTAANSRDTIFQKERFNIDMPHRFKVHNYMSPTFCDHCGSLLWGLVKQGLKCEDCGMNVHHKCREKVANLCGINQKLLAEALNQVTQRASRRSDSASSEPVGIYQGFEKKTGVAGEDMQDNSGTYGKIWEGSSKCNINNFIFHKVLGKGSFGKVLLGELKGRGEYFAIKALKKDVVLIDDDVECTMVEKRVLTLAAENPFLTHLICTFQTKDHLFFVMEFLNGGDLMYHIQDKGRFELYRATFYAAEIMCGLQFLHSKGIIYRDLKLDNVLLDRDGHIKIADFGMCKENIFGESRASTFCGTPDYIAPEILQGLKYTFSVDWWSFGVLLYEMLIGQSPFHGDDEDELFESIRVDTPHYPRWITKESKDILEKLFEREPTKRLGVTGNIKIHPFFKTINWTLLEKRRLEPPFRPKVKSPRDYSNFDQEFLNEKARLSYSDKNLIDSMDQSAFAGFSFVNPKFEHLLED
Protocol: Example 4 describes a study where cardiac myocytes were stimulated with a selected agent and then immuno-precipitated with anti-delta PKC after cross-linking. The cell lysates were then probed with anti-annexin V and visualized with ECL Western blotting. […] The stimulation agent was applied to the cells for times of between 30 seconds to 20 minutes, prior to lysing.
Cardiomyocytes were treated with phorbol 12-myristate 13-acetate (PMA; 10 nM), hydrogen peroxide (H2O2; 5 mM), JTV-519, or delta V1-1 peptide (1 μM) and JTV-519 (1 μM), for times of between 30 seconds to 5 minutes. After the lapsed time, the cells were washed with cold PBS, and homogenized on ice with trituration in homogenization buffer (20 mM Tris pH 7.4, 2 mM EDTA, 10 mM EGTA, 0.25M sucrose, 12 mM O-mercaptoethanol, and protease inhibitor cocktail (Sigma), 0.1% formaldehyde. After 30 min at 4° C., the lysates were quenched with 0.14M glycine for 20 min at 4° C., and samples spun at 14K rpm at 4° C. The supernatant was incubated with 1 μg anti-delta PKC antibody (Santa Cruz Biotechnology, Inc., Santa Cruz, Calif.) for 1 hour, then with proteinG beads (Invitrogen Corporation) for 3 hours at 4° C. The beads where then washed with wash buffer (20 mM Tris pH 7.5, 2 mM EDTA, 100 mM NaCl, 12 mM β-mercaptoethanol, 0.1% Triton), and separated on 7.5% SDS-PAGE, transferred to nitrocellulose, and probed with anti-annexin V (Santa Cruz Biotechnology, Inc., Santa Cruz, Calif.), followed by visualization by ECL Western blotting.

[3] = biological target: T3, delta PKC/annexin V interaction (Cricetulus griseus, UniProt A0A8C2N0P5); assay: Cross-linking co-immunoprecipitation of annexin V and delta PKC in CHO cells; format: cell-based
T3 construct: endogenous in cells; host or cells: CHO cells
T3 sequence (A0A8C2N0P5 1-676): as the sequence (A0A8C2N0P5 1-676) above
T3 sequence (G3I5A4 1-321 partner): as the sequence (G3I5A4 1-321) above
Protocol: A similar study was conducted to further evaluate the in vitro, intracellular interactions of delta PKC and annexin V. Cellular interactions of delta PKC/annexin V interaction in CHO cells were stabilized with a cross-linking agent, after stimulation with 10 nM PMA. The complexes formed with delta PKC were then immuno-precipitated and tested for the presence of annexin V. The SDS-PAGE gel is shown in FIG. 6A and a corresponding graph quantifying percent association of annexin V and delta PKC as a function of time is shown in FIG. 6B. […] The interaction is relatively short-lived, and the proteins disassociated after 1 minute of stimulation.
The effect of JTV-519, an activator of delta PKC, on the association of annexin V and delta PKC was also evaluated in this study. Cells were treated with JTV-519, and the association of annexin V and delta PKC was examined using the co-immunoprecipitation procedure described above. […] PMA caused the disassociation of the JTV-induced complex at 30 seconds, the time of maximal PMA-induced association. […] Whereas the cytosolic fraction of the cells contained a steady low level of the complex, the majority of the complex was found in the particulate fraction of the cells, and disappearance from the particulate fraction followed the same time-course as observed in whole cell lysates (compare FIG. 6D bottom panel with FIG. 6B).

isolated rat hearts = assay: Ex vivo ischemia/reperfusion in isolated rat hearts; conditions: administered after ischemia during the initial 10 minutes of reperfusion
Protocol: The physiologic impact of disruption of the delta PKC-annexin V complex was evaluated in an ex vivo ischemia/reperfusion study using the annexin V peptide, TAT-AnxV, and its mutant, TAT-AnxV(R→E). As described in Example 7, isolated rat hearts were treated with TAT-AnxV or TAT-AnxV(R→E) for 10 minutes prior to induction of an ischemic episode. The ischemic episode lasted for 30 minutes, at which time flow to the heart was returned for 60 minutes (reperfusion). After the reperfusion period, cardiac effluent was collected and analyzed for creatine phosphokinase (CPK). The hearts were stained and visually inspected for live and dead tissue. Infarct size was measured by taking the average of the dead (white) tissue on both sides of the tissue slice.
A similar study was conducted, except rather than pretreating the isolated hearts with the annexin V peptide, the peptide was administered after the ischemic event and during the initial 10 minutes of the reperfusion period. Hearts were similarly treated with the mutant peptide, TAT-AnxV(R→E).
Rats were anesthetized and their hearts were rapidly removed and cannulated via the aorta for retrograde perfusion (Colbert, M. et al., J. Clin. Invest., 100:1958 (1997)). The hearts were left untreated, or were pretreated with the annexin V peptide, conjugated to TAT, (TAT-AnxV, SEQ ID NO:29) or with its mutant, TAT-AnxV(R→E) (SEQ ID NO:31), for 10 minutes prior to a 30 minutes of ischemia. Ischemia was induced by interrupting flow for 30 minutes and then reestablishing flow for 60 minutes (reperfusion). Cardiac effluent was collected for 15 minutes after reperfusion and assayed for creatine phosphokinase (CPK) using a Sigma kit. Hearts were stained with 2,3,5-triphenyltetrazolium chloride ([…]) to visualize live tissue (red) and dead tissue (white), and infarct size was measured by taking the average of the white area on both sides of the tissue slice (n=3, p<0.05). Results are shown in FIGS. 9A-9B and FIGS. 10A-10B.

delta PKC = delta PKC (Rattus norvegicus, UniProt P09215); assay: ELISA of annexin V peptide variants fused to alkaline phosphatase on immobilized delta PKC; format: binding; set-up: key to Binding: +++: Relative binding is shown in Table 1 by “+” and “−” indicators; ++: Relative binding is shown in Table 1 by “+” and “−” indicators; Relative binding is shown in Table 1 by “+” and “−” indicators; Relative binding is shown in Table 1 by “+” and “−” indicators; −−−: Relative binding is shown in Table 1 by “+” and “−” indicators; conditions: Table 1; for Binding: relative binding of peptide-alkaline phosphatase fusion to immobilized delta PKC
delta PKC, sequence (P09215 with tags, fused parts or gaps with the stated changes limits assumed): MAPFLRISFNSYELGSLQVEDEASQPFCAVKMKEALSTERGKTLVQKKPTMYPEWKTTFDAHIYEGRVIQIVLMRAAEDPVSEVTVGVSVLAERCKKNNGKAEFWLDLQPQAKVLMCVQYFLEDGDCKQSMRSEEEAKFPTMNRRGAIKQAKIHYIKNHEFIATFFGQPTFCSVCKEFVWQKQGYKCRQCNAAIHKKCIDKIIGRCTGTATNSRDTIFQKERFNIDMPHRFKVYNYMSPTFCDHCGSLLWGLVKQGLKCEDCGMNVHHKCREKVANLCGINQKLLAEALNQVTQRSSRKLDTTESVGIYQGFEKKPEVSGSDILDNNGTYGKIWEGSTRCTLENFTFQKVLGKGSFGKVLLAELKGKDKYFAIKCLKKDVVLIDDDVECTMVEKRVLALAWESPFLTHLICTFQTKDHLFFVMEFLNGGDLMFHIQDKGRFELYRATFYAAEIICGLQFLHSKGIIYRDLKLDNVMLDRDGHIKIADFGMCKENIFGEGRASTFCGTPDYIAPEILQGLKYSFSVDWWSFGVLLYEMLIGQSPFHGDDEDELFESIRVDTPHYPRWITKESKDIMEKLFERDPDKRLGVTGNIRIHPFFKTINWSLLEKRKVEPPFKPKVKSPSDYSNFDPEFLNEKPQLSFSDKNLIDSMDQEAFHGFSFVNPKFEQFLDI
Protocol: Binding of the annexin V peptide (SEQ ID NO: 1) and of variants of the peptide to delta PKC was examined using an ELISA protocol, detailed in Example 6. Delta PKC (SEQ ID NO:3) was immobilized in the wells of a microtiter plate and then incubated with the annexin V peptide conjugated to alkaline phosphatase or with variants of the annexin V peptide, also conjugated to alkaline phosphatase.
Recombinant delta PKC protein (SEQ ID NO:3) was bound to a Falcon plate for 1 hour at room temperature in carbonate buffer pH 9.6. A 1:10-1:100 dilution of PKC enzyme from glycerol stock or 100 μg was prepared. β-mercaptoethanol at 1 μL/mL was added into the PKC. Each well contained approximately 100 μL of PKC; some wells without PKC were present to correct for non-specific binding.
Next, all wells were blocked with 200 μL of super block or 0.5% milk in carbonate buffer. Blocking was done twice, for 5 minutes each time.
Without washing the wells, 100 μL of a peptide fused to alkaline phosphatase protein (i.e., peptide-alkaline phosphatase fusion) was added to the wells, and incubated for 30 minutes at 37° C. The wells were then washed three times, for 2 minutes each time, with TBS/Tween (0.1%). The wells were allowed to develop overnight before reading absorbance at 405 nm.

[4] = cardiac myocytes stimulated with the agent, FIG. 5

O=CC[C@@H](O)[C@H](O)[C@H](O)CO [2-deoxyglucose]
disassociation of the delta PKC-annexin V complex [1]: substantial levels of the complex even after 5 minutes

OO [H2O2, hydrogen peroxide]
interaction of annexin V and delta PKC [2, 4]: stimulated delta PKC to a greater extent than exposure for 2 minutes

CCCCCCCCCCCCCC(=O)O[C@@H]1[C@@H](C)[C@@]2(O)[C@@H](C=C(CO)C[C@]3(O)C(=O)C(C)=C[C@@H]23)[C@@H]2C(C)(C)[C@]12OC(C)=O [PMA, phorbol 12-myristate 13-acetate]
interaction of annexin V and delta PKC [2, 4]: Annexin V interacts with delta PKC early after stimulation
time of stimulation after which annexin V and delta PKC disassociated ([3]; 10 nM PMA, FIGS. 6A-6B): 1 min
time to induction of annexin V and delta PKC interaction ([3]; 10 nM PMA, FIGS. 6A-6B): ≤ 30 s
cellular localization of the delta PKC-annexin V complex ([3]; soluble versus particulate fraction, FIG. 6D): maximum complex accumulation in the particulate fraction

C=C1[C@@H](C)[C@H]2[C@H](Cc3ccccc3)NC(=O)[C@]23[C@H](OC(C)=O)/C=C/[C@@](C)(O)C(=O)[C@@H](C)C/C=C/[C@H]3[C@@H]1O [cytochalasin D]
disassociation of the delta PKC-annexin V complex [1]: did not affect the profile of disassociation

COC(=O)Nc1nc2ccc(C(=O)c3cccs3)cc2[nH]1 [nocodazole]
disassociation of the delta PKC-annexin V complex [1]: substantial levels of the complex even after 5 minutes

LQANRDPD (listed as Homo sapiens) [SEQ ID NO:1, peptide from annexin V, residues 157-164]
infarct size (isolated rat hearts; FIG. 10A): no cardioprotective effect was observed
creatine phosphokinase (CPK) released (isolated rat hearts; FIG. 10B): does not confer a cardioprotective effect

MAAAEDP (variant of SEQ ID NO1) [SEQ ID NO:17]
Binding (delta PKC): −

MEAAEDP (variant of SEQ ID NO1) [SEQ ID NO:15]
binding to delta PKC (delta PKC): bind to delta PKC
Binding (delta PKC): +

MQAARDP (variant of SEQ ID NO1) [SEQ ID NO:12]
binding to delta PKC (delta PKC): bind to delta PKC
Binding (delta PKC): +++

MRAAADP (variant of SEQ ID NO1) [SEQ ID NO:16]
Binding (delta PKC): −−−

MRAAEDP (variant of SEQ ID NO1) [SEQ ID NO:18]
Binding (delta PKC): ++

MRAAENP (variant of SEQ ID NO1) [SEQ ID NO:13]
binding to delta PKC (delta PKC): bind to delta PKC
Binding (delta PKC): +++

MRAAQDP (variant of SEQ ID NO1) [SEQ ID NO:14]
binding to delta PKC (delta PKC): bind to delta PKC
Binding (delta PKC): ++

delta V1-1 peptide: amino acid sequence from the first variable region of delta PKC (residues 8-17); peptide inhibitor of delta PKC (SFNSYELGS; listed as Rattus norvegicus)
interaction of annexin V and delta PKC ([2]; cardiac myocytes pre-treated with the peptide for 20 minutes, then JTV-519 for 20 minutes, FIG. 5 Lane 10): blocked
